Results: article PMC3030345 (The Journal of Biological Chemistry, 2010)

Molecular target: the molecule itself
Experiment: atomic force microscopy

B1: A3G-H248A/H250A-Myc-His (enzyme, human, UniProt Q9HC16 1-384, looked up)
chain: MKPHFRNTVERMYRDTFSYNFYNRPILSRRNTVWLCYEVKTKGPSRPPLDAKIFRGQVYSELKYHPEMRFFHWFSKWRKLHRDQEYEVTWYISWSPCTKCTRDMATFLAEDPKVTLTIFVARLYYFWDPDYQEALRSLCQKRDGPRATMKIMNYDEFQHCWSKFVYSQRELFEPWNNLPKYYILLHIMLGEILRHSMDPPTFTFNFNNEPWVRGRHETYLCYEVERMHNDTWVLLNQRRGFLCNQAPAKAGFLEGRHAELCFLDVIPFWKLDLDQDYRVTCFTSWSPCFSCAQEMAKFISKNKHVSLCIFTARIYDDQGRCQEGLRTLAEAGAKISIMTYSEFKHCWDTFVDHQGCPFQPWDGLDEHSQDLSGRLRAILQNQEN
- stoichiometry N: 2
